Experimental data published in US20260242735A1 (UNIVERSIT T BASEL, published 2026).
Each block holds one binder with its values, some of them ahead of it.

Assays:
Assay in all cases: alanine scan, flow cytometry;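 also: HEK293-T cells transiently expressing single-residue alanine mutants of CD33 (alanine swapped to serine), antibody binding read by fluorescence in duplicate, background-subtracted, expressed relative to wild-type CD33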
[1] = target: human CD33 F43A (human, UniProt P20138 18-364)
Procedure: (§1) An alanine scan on human CD33 was performed to the determine the residues on CD33 that are involved in binding to the antibodies investigated. […] Briefly, a mutation library of CD33 was created by high-throughput, site-directed mutagenesis. Each residue was individually mutated to alanine, with alanine codons mutated to serine. The mutant library was arrayed in 384-well microplates and transiently transfected into HEK293-T. Following transfection, cells were incubated with the indicated antibodies (IgG or Fab) at concentrations pre-determined using an independent immunofluorescence titration curve on wild type CD33. […] Binding of each antibody to each mutant clone was determined in duplicates. For each point, background fluorescence was subtracted from the raw data, which were then normalized to antibody reactivity with wild type CD33.
(§2) Critical residues for antibody binding (outlined in dark grey) were residues whose mutations led to a binding of the test Abs of less than 20%. Additional secondary residues (outlined in light grey) were identified that led to a binding of the test Abs of between 20 and 40% as compared to the wild type CD33.

[2] = target: human CD33 E33A (human, UniProt P20138 18-364)
Procedure: as §1, §2

[3] = target: human CD33 F90A (human, UniProt P20138 18-364)
Procedure: as §1, §2

[4] = target: human CD33 G88A (human, UniProt P20138 18-364)
Procedure: as §1, §2

[5] = target: human CD33 V39A (human, UniProt P20138 18-364)
Procedure: as §1, §2

[6] = target: human CD33 P40A (human, UniProt P20138 18-364)
Procedure: as §1, §2

[7] = target: human CD33 Q83A (human, UniProt P20138 18-364)
Procedure: as §1, §2

[8] = target: human CD33 Y59A (human, UniProt P20138 18-364)
Procedure: as §1, §2

[9] = target: human CD33 G34A (human, UniProt P20138 18-364)
Procedure: as §1, §2

[10] = target: human CD33 F61A (human, UniProt P20138 18-364)
Procedure: as §1, §2

[11] = target: human CD33 V29A (human, UniProt P20138 18-364)
Procedure: as §1, §2

[12] = target: human CD33 T86A (human, UniProt P20138 18-364)
Procedure: as §1, §2

[13] = target: human CD33 Q32A (human, UniProt P20138 18-364)
Procedure: as §1, §2

[14] = target: human CD33 V31A (human, UniProt P20138 18-364)
Procedure: as §1, §2

[15] = target: human CD33 Q26A (human, UniProt P20138 18-364)
Procedure: as §1, §2

[16] = target: human CD33 H57A (human, UniProt P20138 18-364)
Procedure: as §1, §2

[17] = target: human CD33 Q87A (human, UniProt P20138 18-364)
Procedure: as §1, §2

[18] = target: human CD33 E63A (human, UniProt P20138 18-364)
Procedure: as §1, §2

[19] = target: human CD33 E27A (human, UniProt P20138 18-364)
Procedure: as §1, §2

[20] = target: human CD33 R89A (human, UniProt P20138 18-364)
Procedure: as §1, §2

[21] = target: human CD33 D79A (human, UniProt P20138 18-364)
Procedure: as §1, §2

[22] = target: human CD33 N76A (human, UniProt P20138 18-364)
Procedure: as §1, §2

[23] = target: human CD33 L23A (human, UniProt P20138 18-364)
Procedure: as §1, §2

[24] = target: human CD33 T75A (human, UniProt P20138 18-364)
Procedure: as §1, §2

[25] = target: human CD33 S54A (human, UniProt P20138 18-364)
Procedure: as §1, §2

[26] = target: human CD33 F44A (human, UniProt P20138 18-364)
Procedure: as §1, §2

[27] = target: human CD33 I67A (human, UniProt P20138 18-364)
Procedure: as §1, §2

[28] = target: human CD33 E84A (human, UniProt P20138 18-364)
Procedure: as §1, §2

[29] = target: human CD33 D18A (human, UniProt P20138 19-364)
Procedure: as §1, §2

[30] = target: human CD33 P19A (human, UniProt P20138 18-364)
Procedure: as §1, §2

[31] = target: human CD33 G58A (human, UniProt P20138 18-364)
Procedure: as §1, §2

[32] = target: human CD33 P46A (human, UniProt P20138 18-364)
Chain of human CD33 P46A (P20138 18-364 P46A limits assumed): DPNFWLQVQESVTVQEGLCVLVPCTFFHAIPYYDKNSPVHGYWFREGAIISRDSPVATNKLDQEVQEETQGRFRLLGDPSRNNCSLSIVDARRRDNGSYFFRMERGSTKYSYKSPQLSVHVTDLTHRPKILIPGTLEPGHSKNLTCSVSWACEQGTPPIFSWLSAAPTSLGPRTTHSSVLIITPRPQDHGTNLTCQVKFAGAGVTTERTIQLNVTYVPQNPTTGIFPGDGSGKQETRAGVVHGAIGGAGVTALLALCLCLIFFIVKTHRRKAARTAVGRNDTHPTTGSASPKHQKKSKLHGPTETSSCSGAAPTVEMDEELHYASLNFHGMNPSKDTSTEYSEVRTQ
Procedure: as §1, §2

Chain of human CD33 I67A (P20138 18-364 I67A limits assumed): as the sequence (P20138 18-364 P46A limits assumed) above, with A29P, I50A counted along it
Chain of human CD33 S54A (P20138 18-364 S54A limits assumed): as the sequence (P20138 18-364 P46A limits assumed) above, with A29P, S37A counted along it
Chain of human CD33 T75A (P20138 18-364 T75A limits assumed): as the sequence (P20138 18-364 P46A limits assumed) above, with A29P, T58A counted along it
Chain of human CD33 P40A (P20138 18-364 P40A limits assumed): as the sequence (P20138 18-364 P46A limits assumed) above, with P23A, A29P counted along it
Chain of human CD33 E27A (P20138 18-364 E27A limits assumed): as the sequence (P20138 18-364 P46A limits assumed) above, with E10A, A29P counted along it
Chain of human CD33 P19A (P20138 18-364 P19A limits assumed): as the sequence (P20138 18-364 P46A limits assumed) above, with P2A, A29P counted along it
Chain of human CD33 Q32A (P20138 18-364 Q32A limits assumed): as the sequence (P20138 18-364 P46A limits assumed) above, with Q15A, A29P counted along it
Chain of human CD33 G34A (P20138 18-364 G34A limits assumed): as the sequence (P20138 18-364 P46A limits assumed) above, with G17A, A29P counted along it
Chain of human CD33 T86A (P20138 18-364 T86A limits assumed): as the sequence (P20138 18-364 P46A limits assumed) above, with A29P, T69A counted along it
Chain of human CD33 G88A (P20138 18-364 G88A limits assumed): as the sequence (P20138 18-364 P46A limits assumed) above, with A29P, G71A counted along it
Chain of human CD33 E84A (P20138 18-364 E84A limits assumed): as the sequence (P20138 18-364 P46A limits assumed) above, with A29P, E67A counted along it
Chain of human CD33 Q26A (P20138 18-364 Q26A limits assumed): as the sequence (P20138 18-364 P46A limits assumed) above, with Q9A, A29P counted along it
Chain of human CD33 E63A (P20138 18-364 E63A limits assumed): as the sequence (P20138 18-364 P46A limits assumed) above, with A29P, E46A counted along it
Chain of human CD33 D79A (P20138 18-364 D79A limits assumed): as the sequence (P20138 18-364 P46A limits assumed) above, with A29P, D62A counted along it
Chain of human CD33 V31A (P20138 18-364 V31A limits assumed): as the sequence (P20138 18-364 P46A limits assumed) above, with V14A, A29P counted along it
Chain of human CD33 V29A (P20138 18-364 V29A limits assumed): as the sequence (P20138 18-364 P46A limits assumed) above, with V12A, A29P counted along it
Chain of human CD33 Y59A (P20138 18-364 Y59A limits assumed): as the sequence (P20138 18-364 P46A limits assumed) above, with A29P, Y42A counted along it
Chain of human CD33 F61A (P20138 18-364 F61A limits assumed): as the sequence (P20138 18-364 P46A limits assumed) above, with A29P, F44A counted along it
Chain of human CD33 E33A (P20138 18-364 E33A limits assumed): as the sequence (P20138 18-364 P46A limits assumed) above, with E16A, A29P counted along it
Chain of human CD33 F43A (P20138 18-364 F43A limits assumed): as the sequence (P20138 18-364 P46A limits assumed) above, with F26A, A29P counted along it
Chain of human CD33 G58A (P20138 18-364 G58A limits assumed): as the sequence (P20138 18-364 P46A limits assumed) above, with A29P, G41A counted along it
Chain of human CD33 Q83A (P20138 18-364 Q83A limits assumed): as the sequence (P20138 18-364 P46A limits assumed) above, with A29P, Q66A counted along it
Chain of human CD33 F44A (P20138 18-364 F44A limits assumed): as the sequence (P20138 18-364 P46A limits assumed) above, with F27A, A29P counted along it
Chain of human CD33 R89A (P20138 18-364 R89A limits assumed): as the sequence (P20138 18-364 P46A limits assumed) above, with A29P, R72A counted along it
Chain of human CD33 Q87A (P20138 18-364 Q87A limits assumed): as the sequence (P20138 18-364 P46A limits assumed) above, with A29P, Q70A counted along it
Chain of human CD33 H57A (P20138 18-364 H57A limits assumed): as the sequence (P20138 18-364 P46A limits assumed) above, with A29P, H40A counted along it
Chain of human CD33 N76A (P20138 18-364 N76A limits assumed): as the sequence (P20138 18-364 P46A limits assumed) above, with A29P, N59A counted along it
Chain of human CD33 F90A (P20138 18-364 F90A limits assumed): as the sequence (P20138 18-364 P46A limits assumed) above, with A29P, F73A counted along it
Chain of human CD33 V39A (P20138 18-364 V39A limits assumed): as the sequence (P20138 18-364 P46A limits assumed) above, with V22A, A29P counted along it
Chain of human CD33 D18A (P20138 18-364 D18A limits assumed): as the sequence (P20138 18-364 P46A limits assumed) above, with D1A, A29P counted along it
Chain of human CD33 L23A (P20138 18-364 L23A limits assumed): as the sequence (P20138 18-364 P46A limits assumed) above, with L6A, A29P counted along it

Mean % WT Binding [1]: 10.6 % WT
Mean % WT Binding [2]: 120 % WT
Mean % WT Binding [3]: 104 % WT
Mean % WT Binding [4]: 110 % WT
Mean % WT Binding [5]: 111 % WT
Mean % WT Binding [6]: 101 % WT
Mean % WT Binding [7]: 107 % WT
Mean % WT Binding [8]: 95.7 % WT
Mean % WT Binding [9]: 105 % WT
Mean % WT Binding [10]: 135 % WT
Mean % WT Binding [11]: 100 % WT
Mean % WT Binding [12]: 113 % WT
Mean % WT Binding [13]: 108 % WT
Mean % WT Binding [14]: 106 % WT
Mean % WT Binding [15]: 111 % WT
Mean % WT Binding [16]: 112 % WT
Mean % WT Binding [17]: 118 % WT
Mean % WT Binding [18]: 107 % WT
Mean % WT Binding [19]: 111 % WT
Mean % WT Binding [20]: 98.7 % WT
Mean % WT Binding [21]: 102 % WT
Mean % WT Binding [22]: 106 % WT
Mean % WT Binding [23]: 83.4 % WT
Mean % WT Binding [24]: 114 % WT
Mean % WT Binding [25]: 112 % WT
Mean % WT Binding [26]: 1.2 % WT
Mean % WT Binding [27]: 122 % WT
Mean % WT Binding [28]: 114 % WT
Mean % WT Binding [29]: 119 % WT
Mean % WT Binding [30]: 111 % WT
Mean % WT Binding [31]: 118 % WT
Mean % WT Binding [32]: 104 % WT
B1: Refmab #2 (antibody, V domains shown)
VH: QVQLVQSGAEVKKPGSSVKVSCKASGGTFSDYAISWVRQAPGQGLEWMGRIIPILGVADYAQKFQGRVTITADKSTRTAYMELSSLRSEDTAVYYCARNWADAFDIWGQGTMVTVSS
VL: DIQLTQSPSSLSASVGDRVTITCRASQGISSVLAWYQQKPGKAPKLLIYDASSLESGVPSRFSGSGSGTDFTLTISSLQPEDFATYYCQQFDSSITFGQGTKLEIK
notes: Full-length format is human IgG1 Fc silent (PG-LALA); The alanine scan used IgG or Fab

Mean % WT Binding [1]: 66.3 % WT
Mean % WT Binding [2]: 86.4 % WT
Mean % WT Binding [3]: 73.9 % WT
Mean % WT Binding [4]: 96.1 % WT
Mean % WT Binding [5]: 80 % WT
Mean % WT Binding [6]: 74.5 % WT
Mean % WT Binding [7]: 87.1 % WT
Mean % WT Binding [8]: 93.6 % WT
Mean % WT Binding [9]: 99.5 % WT
Mean % WT Binding [10]: 95 % WT
Mean % WT Binding [11]: 102 % WT
Mean % WT Binding [12]: 79.1 % WT
Mean % WT Binding [13]: 87 % WT
Mean % WT Binding [14]: 87 % WT
Mean % WT Binding [15]: 81.4 % WT
Mean % WT Binding [16]: 78.2 % WT
Mean % WT Binding [17]: 91 % WT
Mean % WT Binding [18]: 107 % WT
Mean % WT Binding [19]: 82.5 % WT
Mean % WT Binding [20]: 77.6 % WT
Mean % WT Binding [21]: 88.1 % WT
Mean % WT Binding [22]: 61.8 % WT
Mean % WT Binding [23]: 82.7 % WT
Mean % WT Binding [24]: 101 % WT
Mean % WT Binding [25]: 87.6 % WT
Mean % WT Binding [26]: 85.1 % WT
Mean % WT Binding [27]: 98.1 % WT
Mean % WT Binding [28]: 92.2 % WT
Mean % WT Binding [29]: 78.6 % WT
Mean % WT Binding [30]: 80.8 % WT
Mean % WT Binding [31]: 77.4 % WT
Mean % WT Binding [32]: 64.8 % WT
B2: Refmab #1 (antibody, V domains shown)
VH: EVQLVQSGAEVKKPGSSVKVSCKASGYTITDSNIHWVRQAPGQSLEWIGYIYPYNGGTDYNQKFKNRATLTVDNPTNTAYMELSSLRSEDTAFYYCVNGNPWLAYWGQGTLVTVSS
VL: DIQLTQSPSTLSASVGDRVTITCRASESLDNYGIRFLTWFQQKPGKAPKLLMYAASNQGSGVPSRFSGSGSGTEFTLTISSLQPDDFATYYCQQTKEVPWSFGQGTKVEVK
notes: Full-length format is human IgG1 (Absolute Antibody Ab00283-10.0); The alanine scan used IgG or Fab; also called hP67.6
